Source: publication PMC4773402, “Comparison of the aggregation of homologous β2-microglobulin variants reveals protein solubility as a key determinant of amyloid formation” (Journal of Molecular Biology, 2016)

Molecular target: the molecule itself
Experiment: AUC; sedimentation velocity, 25 °C, 48,000 rpm, 50 μM protein, pH 2.5 buffer with 0.3 M NaCl, absorbance at 280 nm, SEDFIT

B1: mouse β2-microglobulin (natural protein, UniProt P01887 21-119, looked up)
chain: IQKTPQIQVYSRHPPENGKPNILNCYVTQFHPPHIEIQMLKNGKKIPKVEMSDMSFSKDWSFYILAHTEFTPTETDTYACRVKHASMAEPKTVYWDRDM
notes: β2-microglobulin, mouse; In the AUC the protein was acid-unfolded at pH 2.5; also called mβ2m; source: expressed and prepared as described previously [47]; purified (anion exchange at pH 8.5, gel filtration), lyophilised
- binding result: binds
